First the molecules themselves.
B1: KAT8 regulatory NSL complex subunit 2, residues 28 to 91; numbered along this chain, Q9H9L4 (parent)
chain: CAFTHRPCSHPRLEGQEFCIKHILEDKNAPFKQCSYISTKNGKRCPNAAPKPEKKDGVSFCAEH

± gives the uncertainty stated by the source.

Variants of B1 are the subject of this series. As to the kind of experiment: abundance fitness (aPCA) (normalised: wild type 0, dead -1); higher = more abundant; growth selection in yeast, the domain comes from the species named. The conditions noted are these: Homo sapiens.
On to CAFTHRPCSHPRLEGQEFCIKHILEDKNAPFKQCSYISTKNGKRCPNAAPKPEKKDGVSFCQEH [A62Q], for which the abundance fitness is -0.057 ± 0.061.

CAFTHRPCSHPRLEGQEFCIKHILEDKNAPFKQCSYISTKNGKRCPNAAPKPEKKNGVSFCAEH [D56N]: the abundance fitness was -0.073 ± 0.077.

In the case of CAFTHRPCSHPRLEGQEFCIKHILEDKNASFKQCSYISTKNGKRCPNAAPKPEKKDGVSFCAEH [P30S], the abundance fitness is -0.136 ± 0.052.

With CAFTHRPCSHPRLEGQEFCIKHILEDKNAYFKQCSYISTKNGKRCPNAAPKPEKKDGVSFCAEH [P30Y], the abundance fitness is -0.335 ± 0.076.

With CAFTHRPCSHPRLEGQEFCIKHILEDKCAPFKQCSYISTKNGKRCPNAAPKPEKKDGVSFCAEH [N28C], the abundance fitness was -0.142 ± 0.13.

With CAFTHRPCSHPRLEGQEFCIKHILEDKDAPFKQCSYISTKNGKRCPNAAPKPEKKDGVSFCAEH [N28D], the abundance fitness was -0.252 ± 0.17.

CAFTHRPCSHPRLEGQEFCIKHILEDKHAPFKQCSYISTKNGKRCPNAAPKPEKKDGVSFCAEH [N28H]: the abundance fitness was -0.028 ± 0.13.

CAFTHRPCSHPRLEGQEFGIKHILEDKNAPFKQCSYISTKNGKRCPNAAPKPEKKDGVSFCAEH [C19G]: the abundance fitness is -0.941 ± 0.056.

As for CAFTHRPCSHPRLEGQEFPIKHILEDKNAPFKQCSYISTKNGKRCPNAAPKPEKKDGVSFCAEH [C19P], the abundance fitness was -0.809 ± 0.11.

On to CAFTHRPCSHPRDEGQEFCIKHILEDKNAPFKQCSYISTKNGKRCPNAAPKPEKKDGVSFCAEH [L13D], for which the abundance fitness was -0.501 ± 0.086.

Regarding CAFLHRPCSHPRLEGQEFCIKHILEDKNAPFKQCSYISTKNGKRCPNAAPKPEKKDGVSFCAEH [T4L], the abundance fitness is -0.53 ± 0.055.

For CAFTHRPCSHPRLEGQEFCIKHILEDKNAPFKQCTYISTKNGKRCPNAAPKPEKKDGVSFCAEH [S35T], the abundance fitness was -0.104 ± 0.058.

For CAFTHRPCIHPRLEGQEFCIKHILEDKNAPFKQCSYISTKNGKRCPNAAPKPEKKDGVSFCAEH [S9I], the abundance fitness worked out at 0.016 ± 0.12.

Consider CAFTHRPCSHPRLEGQEFCIKHILEDKNAPFKQGSYISTKNGKRCPNAAPKPEKKDGVSFCAEH [C34G], for which the abundance fitness is -0.339 ± 0.063.

Turning to CAFTHRPCSHPRLEGQEFCIKHILEDKNIPFKQCSYISTKNGKRCPNAAPKPEKKDGVSFCAEH [A29I], the abundance fitness was -0.358 ± 0.1.

With CAFTHRPCSHPRLEGQEFCIKHILEDKNAPFKECSYISTKNGKRCPNAAPKPEKKDGVSFCAEH [Q33E], the abundance fitness is -0.049 ± 0.088.

Turning to CAFTHRPCSHPRLEGQEFCIKHILEDKNAPFKQCSYISTKNGKRCPWAAPKPEKKDGVSFCAEH [N47W], the abundance fitness is -0.079 ± 0.061.

Turning to CAFTHRPCSHPGLEGQEFCIKHILEDKNAPFKQCSYISTKNGKRCPNAAPKPEKKDGVSFCAEH [R12G], the abundance fitness is -0.652 ± 0.074.

Turning to CAFTHRPCSHPRLEGQEFCIKHILEDKNAPFKQCSYIETKNGKRCPNAAPKPEKKDGVSFCAEH [S38E], the abundance fitness is -0.059 ± 0.081.

Take CAFTHRPCSHPRLEGQEFCIKHILEDFNAPFKQCSYISTKNGKRCPNAAPKPEKKDGVSFCAEH [K27F]: the abundance fitness is -0.3 ± 0.079.

As to CAFTHRPCSHPRLEGQEFCIKHILEDCNAPFKQCSYISTKNGKRCPNAAPKPEKKDGVSFCAEH [K27C], the abundance fitness is -0.194 ± 0.082.

Regarding CAFTHRPCSHPRLEGQEFCIKHILEDKNAPFKQCSYISTKNGKRCPNALPKPEKKDGVSFCAEH [A49L], the abundance fitness is -0.094 ± 0.044.

On to CAFTHRPCSHHRLEGQEFCIKHILEDKNAPFKQCSYISTKNGKRCPNAAPKPEKKDGVSFCAEH [P11H], for which the abundance fitness was -0.234 ± 0.092.

Consider CAFTHRPCSHPRLEGQEFCIKHILEDKNAPFKQCSYISTKNGKRCPNAAPKPEKKDGVSFCAEV [H64V], for which the abundance fitness is -0.534 ± 0.12.

Regarding CAFTHRPCSHPRLEGQEFCIKHILEDKNAPFKQCSYISTKNGKRCPNAAPKPEKKDGVSFCAEW [H64W], the abundance fitness was -1.55 ± 0.46.

Take CAFTHRPCSHPRLEGQEMCIKHILEDKNAPFKQCSYISTKNGKRCPNAAPKPEKKDGVSFCAEH [F18M]: the abundance fitness is -0.196 ± 0.063.

Consider CAFTHRPCSHPRLHGQEFCIKHILEDKNAPFKQCSYISTKNGKRCPNAAPKPEKKDGVSFCAEH [E14H], for which the abundance fitness is -0.262 ± 0.16.

For the variant CAFTHRPCSHPRLEGQEFCIKHILEDKNAPFKQCSYISTKNGKRCPNAAPKPEKKDGVSFRAEH [C61R], the abundance fitness was -0.56 ± 0.046.

On to CAFTHRPCSHPRLEGQEFCIKHILEDKNAPFKQCSYISTKNGKRCPNAAPKPEKKDGVSFHAEH [C61H], for which the abundance fitness was -0.447 ± 0.082.

CAFTHRPCSHPRLEGQEFCIKHILEDKNAPFKQCSYISTKNGKRCPNNAPKPEKKDGVSFCAEH [A48N]: the abundance fitness is -0.293 ± 0.098.

CAFTHRPCSHPRLEGQEFCIKHILEDKNAPFKQCSYISTKNGKRCPNLAPKPEKKDGVSFCAEH [A48L]: the abundance fitness is -0.16 ± 0.046.

On to CAFTHRPCSHPRLEGQEFCIKVILEDKNAPFKQCSYISTKNGKRCPNAAPKPEKKDGVSFCAEH [H22V], for which the abundance fitness was -1.36 ± 0.059.

As to CAFTHRPCSHPRLEGQEFCIKAILEDKNAPFKQCSYISTKNGKRCPNAAPKPEKKDGVSFCAEH [H22A], the abundance fitness is -0.769 ± 0.053.

Consider CAFTHRPCSHPRLEGQEFCIKHILVDKNAPFKQCSYISTKNGKRCPNAAPKPEKKDGVSFCAEH [E25V], for which the abundance fitness is -0.069 ± 0.053.

As for CAFTHRPYSHPRLEGQEFCIKHILEDKNAPFKQCSYISTKNGKRCPNAAPKPEKKDGVSFCAEH [C8Y], the abundance fitness is -1.07 ± 0.073.

Consider CAFTHRPCSEPRLEGQEFCIKHILEDKNAPFKQCSYISTKNGKRCPNAAPKPEKKDGVSFCAEH [H10E], for which the abundance fitness was -0.038 ± 0.077.

With CAFTHRPCSHPRLEGQEFCIKHILEDKNAPFKQCSYISTKNGKRCGNAAPKPEKKDGVSFCAEH [P46G], the abundance fitness was -0.022 ± 0.037.

Take CAFTHRPCSHPRLEGQEFCIKHILEDKNAPFCQCSYISTKNGKRCPNAAPKPEKKDGVSFCAEH [K32C]: the abundance fitness is -0.146 ± 0.098.

For CAFTHRPCSHPRLEGQEFCIKHILEDKNAPFKQCSKISTKNGKRCPNAAPKPEKKDGVSFCAEH [Y36K], the abundance fitness is -0.015 ± 0.069.

Take CAFTHRPCSHPRLEGQEFCIKHILEDKNAPFKQCSYISTKNGKRCPNAAPKKEKKDGVSFCAEH [P52K]: the abundance fitness was -0.136 ± 0.069.

In the case of CAFTHRPCSHPRLEGQEFCIKHILEDKNAPFKQCSYISTKNGKRCPNAAPNPEKKDGVSFCAEH [K51N], the abundance fitness was -0.195 ± 0.12.

As for CAFTHRPCSHPRLEGQEFCIYHILEDKNAPFKQCSYISTKNGKRCPNAAPKPEKKDGVSFCAEH [K21Y], the abundance fitness is -0.227 ± 0.16.

The values are drawn from the Human Domainome abundance scans (Beltran et al. 2025).
